Assay results as given in the supplement of paper PMC7877785.
± gives the uncertainty stated by the source.

Experiment: self-splicing fitness, log relative to wild type (ln ratio); higher = more splicing; Tetrahymena group I intron in knt gene, E. coli kanamycin selection, DiMSum; sequences stand for … in CUCUCU…GGAGGGAAAAGUUAUCAGGCAUGCACCUGGUAGCUAGUCUUUAAACCAAUAGAUUGCAUCGGUUUAAAAGGCAAGACCGUCAAAUUGCGGGAAAGGGGUCAACAGCCGUUCAGUACCAAGUCUCAGGGGAAACUUUGAGAUGGCCUUGCAAAGGGUAUGGUAAUAAGCUGACGGACAUGGUCCUAACCACGCAGCCAAGUCCUAAGUCAACAGAUCUUCUGUUGAUAUGGAUGCAGUUCACAGACUAAAUGUCGGUCGGGGAAGAUGUAUUCUUCUCAUAAGAUAUAGUCGGACCUCUCCUUAAUGGGAGCUAGCGGAUGAAGUGAUGCAACACUGGAGCCGCUGGGAACUAAUUUGUAUGCGAAAGUAUAUUGAUUAGUUUUGGAGUACUCGUGGUCG
How it was run: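 Library with all eight P1ex-region intron nucleotides randomised, intron inside the knt kanamycin-resistance gene on pET-22b(+), in E. coli BL21(DE3). Cells grew overnight at 37°C or 30°C on LB agar with or without 25 μg/mL kanamycin (plus 100 μg/mL carbenicillin, 50 μM IPTG, 0.2% rhamnose), in six replicate transformations. Pooled colonies were amplicon-sequenced on Illumina HiSeq 2500. DiMSum fitness is the error-weighted combination of wild-type-normalised replicate fold changes, kanamycin versus none.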

| Sequence | self-splicing fitness (ln) (30 °C) | self-splicing fitness (ln) (37 °C) |
| --- | --- | --- |
| GUCAAGCAAUAUUACGGCGC | -0.751 ± 0.11 | -0.437 ± 0.14 |
| GUCAAGCAAUAUUACGGCUA | -1.28 ± 0.073 | -0.658 ± 0.066 |
| GUCAAGCAAUAUUACGGGGG | -4.02 ± 0.46 | -2.86 ± 0.34 |
| GUCAAGCAAUAUUACGGGUA | -2.91 ± 0.12 | -1.45 ± 0.076 |
| GUCAAGCAAUAUUACGGGUU | -3.26 ± 0.11 | -2.31 ± 0.12 |
| GUCAAGCAAUAUUACGGUCA | -1.24 ± 0.12 | -0.86 ± 0.12 |
| GUCAAGCAAUAUUACGGUGG | -4.45 ± 0.15 | -3.19 ± 0.17 |
| GUCAAGCAAUAUUACGUAAU | -0.836 ± 0.044 | -0.385 ± 0.061 |
| GUCAAGCAAUAUUACGUACC | -0.597 ± 0.3 | -1.73 ± 0.43 |
| GUCAAGCAAUAUUACGUCUC | -0.66 ± 0.076 | -0.461 ± 0.097 |
| GUCAAGCAAUAUUACGUGAU | -4.06 ± 0.23 | -3.23 ± 0.27 |
| GUCAAGCAAUAUUACGUUCU | -1.88 ± 0.07 | -1.3 ± 0.087 |
| GUCAAGCAAUAUUACGUUGA | -2.64 ± 0.21 | -3.51 ± 0.4 |
| GUCCAGCAAUAUUACGACCU | -2.17 ± 0.19 | -1.13 ± 0.2 |
| GUCCAGCAAUAUUACGAGAC | -3.46 ± 0.23 | -1.82 ± 0.23 |
| GUCCAGCAAUAUUACGAGCC | -1.18 ± 0.15 | -0.519 ± 0.16 |
| GUCCAGCAAUAUUACGAUUC | -0.315 ± 0.055 | 0.0606 ± 0.075 |

| Sequence | self-splicing fitness (ln) (30 °C) | self-splicing fitness (ln) (37 °C) |
| --- | --- | --- |
| GUCCAGCAAUAUUACGCGAC | -3.04 ± 0.19 | -2.86 ± 0.21 |
| GUCCAGCAAUAUUACGCGAG | -0.816 ± 0.088 | -0.322 ± 0.1 |
| GUCCAGCAAUAUUACGCGUU | -0.325 ± 0.078 | 0.304 ± 0.1 |
| GUCCAGCAAUAUUACGCUAC | -4.03 ± 0.16 | -2.96 ± 0.14 |
| GUCCAGCAAUAUUACGGAAU | -0.712 ± 0.079 | 0.0755 ± 0.094 |
| GUCCAGCAAUAUUACGGAGA | -0.714 ± 0.096 | 0.585 ± 0.11 |
| GUCCAGCAAUAUUACGGCCU | -3.36 ± 0.2 | -1.14 ± 0.13 |
| GUCCAGCAAUAUUACGGGUU | -1.58 ± 0.07 | -1.03 ± 0.073 |
| GUCCAGCAAUAUUACGGUAG | -2.08 ± 0.083 | -1.61 ± 0.096 |
| GUCCAGCAAUAUUACGGUAU | -0.797 ± 0.052 | 0.0993 ± 0.064 |
| GUCCAGCAAUAUUACGGUCA | -0.244 ± 0.07 | -0.0837 ± 0.072 |
| GUCCAGCAAUAUUACGUCAC | -2.41 ± 0.14 | -0.6 ± 0.13 |
| GUCCAGCAAUAUUACGUCGU | -0.0754 ± 0.066 | -0.486 ± 0.088 |
| GUCCAGCAAUAUUACGUCUC | 0.725 ± 0.087 | -0.134 ± 0.087 |
| GUCCAGCAAUAUUACGUGGA | -3.34 ± 0.21 | -1.91 ± 0.19 |
| GUCCAGCAAUAUUACGUGGC | -3.97 ± 0.24 | -3.46 ± 0.39 |
